The record followed here is patent US20230242586A1, “RAS INHIBITORS AND USES THEREOF” (The Regents of the University of California, priority 2020, published 2023).

This assay addresses biotinylated wildtype K-Ras·GppNHp (His-Avi-TEV-KRAS (wildtype)) (human). Briefly: TR-FRET Ras-Raf interaction assay (competition); reference K-Ras(G12D).

The substance “bicyclic variant of KD2 (Val3 and Arg9 replaced with azidoalanine and propargylglycine) (peptide)” returned a fold IC50 on wildtype K-Ras against that for K-Ras(G12D) of more than 20 fold.
In turn, “bicyclic variant of KD2 (Val3 and Arg9 replaced with two cysteines) (peptide)” came in with a fold IC50 on wildtype K-Ras against that for K-Ras(G12D) of more than 20 fold.
